Results from US20240158512A1 (TRUEBINDING, published 2024).
“And” between values parts separate entries of the source, which are not always exact repeats. Equal entries are not always repeated. Each block holds one binder with its values, some of them ahead of it.

Tests used:
[1] = target: T1, Galectin-3 (UniProt P17931 1-250, limits assumed); assay: BLI (Binding Activity); accelerated stability 25 C/60% RH, 3 months
T1 construct: Target of the anti-Gal3 antibody TB006; also called Gal3; GAL3

[2] = target: T1, Galectin-3; assay: BLI; after 25 C for 1 month
[3] = target: T1, Galectin-3; assay: ELISA (Biological Activity); long-term stability 5 C, 3 months
[4] = target: T1, Galectin-3; assay: BLI; Time 0 (control)
[5] = target: T1, Galectin-3; assay: BLI (Binding Activity); long-term stability 5 C, 3 months
[6] = target: T1, Galectin-3; assay: BLI; after 5 freeze/thaws, 100% vol. of container
[7] = target: T1, Galectin-3; assay: BLI; after 3 freeze/thaws, 100% vol. of container
[8] = target: T1, Galectin-3; assay: BLI; after 25 C for 3 months
[9] = target: T1, Galectin-3; assay: ELISA blocking assay; TB006 diluted to 0.31 mg/mL in 0.9% NaCl, 25 C, 0.5 h; blocked partner not named
[10] = target: T1, Galectin-3; assay: BLI; after 4 C for 6 months
[11] = target: T1, Galectin-3; assay: BLI; after -80 C for 18 months
[12] = target: T1, Galectin-3; assay: BLI; after 40 C for 7 days
[13] = target: T1, Galectin-3; assay: BLI; after agitation (shear stress)
[14] = target: T1, Galectin-3; assay: BLI; after 4 C for 12 months
[15] = target: T1, Galectin-3; assay: BLI; after pipetting (shear stress)
[16] = target: T1, Galectin-3; assay: BLI (Binding Activity); long-term stability 5 C, 1 month
[17] = target: T2, Galectin-3 (Gal3) (UniProt P17931 1-250, limits assumed); assay: BLI; 50 mg/mL DS after 25 C for 1 month
T2 construct: Target of TB006
T2 sequence (P17931 whole entry): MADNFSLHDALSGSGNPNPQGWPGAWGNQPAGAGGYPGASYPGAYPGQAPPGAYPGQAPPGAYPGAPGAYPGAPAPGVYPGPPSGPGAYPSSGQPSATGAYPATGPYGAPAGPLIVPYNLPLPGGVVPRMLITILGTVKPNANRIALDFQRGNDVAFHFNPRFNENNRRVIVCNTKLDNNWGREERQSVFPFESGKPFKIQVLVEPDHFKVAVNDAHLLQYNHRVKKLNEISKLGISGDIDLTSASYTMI

[18] = target: T2, Galectin-3 (Gal3); assay: BLI; 20 mg/mL DS after agitation for 1 day
Method in brief: (§1)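 Galectin-3 binding is reported as the dissociation constant (Kd), measured by biolayer interferometry. Samples were collected at time zero or after agitation, repeated freeze-thaw cycles, or storage at set temperatures, including 40° C and cryogenic storage.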

[19] = target: T2, Galectin-3 (Gal3); assay: BLI; 20 mg/mL DS after -80 C for 1 month
Method in brief: as §1

[20] = target: T2, Galectin-3 (Gal3); assay: BLI; 20 mg/mL DS after 25 C for 14 days
Method in brief: as §1

[21] = target: T2, Galectin-3 (Gal3); assay: BLI; 20 mg/mL DS after -80 C for 18 months
Method in brief: as §1

[22] = target: T2, Galectin-3 (Gal3); assay: BLI; 20 mg/mL DS after 4 C for 3 months
[23] = target: T2, Galectin-3 (Gal3); assay: BLI; 20 mg/mL DS after 25 C for 6 months
Method in brief: as §1

[24] = target: T2, Galectin-3 (Gal3); assay: BLI; 50 mg/mL DS after 4 C for 9 months
[25] = target: T2, Galectin-3 (Gal3); assay: BLI; 50 mg/mL DS after 40 C for 3 months
[26] = target: T2, Galectin-3 (Gal3); assay: BLI; 50 mg/mL DS after agitation for 3 days
[27] = target: T2, Galectin-3 (Gal3); assay: BLI; 20 mg/mL DS after 25 C for 9 months
[28] = target: T2, Galectin-3 (Gal3); assay: BLI; 20 mg/mL DS after 25 C for 1 month
Method in brief: as §1

[29] = target: T2, Galectin-3 (Gal3); assay: BLI; 50 mg/mL DS after -80 C for 3 months
[30] = target: T2, Galectin-3 (Gal3); assay: BLI; 20 mg/mL DS after 3 freeze/thaws
Method in brief: as §1

[31] = target: T2, Galectin-3 (Gal3); assay: BLI; 50 mg/mL DS after 40 C for 21 days
[32] = target: T2, Galectin-3 (Gal3); assay: BLI; 50 mg/mL DS after 4 C for 6 months
[33] = target: T2, Galectin-3 (Gal3); assay: BLI; 20 mg/mL DS after 4 C for 9 months
Method in brief: as §1

T1 sequence (P17931 whole entry): as above

Kd [1]: 3.1 nM
Kd [2]: 3.1 nM
IC50 [3]: 1.5 µg/mL
Kd [4]: 2.8 nM
Kd [5]: 3 nM
Kd [6]: 2.6 nM
Kd [7]: 2.7 nM
Kd [8]: 3.3 nM
IC50 [9]: 1.66 µg/mL and 1.34 µg/mL
Kd [10]: 2.3 nM
Kd [11]: 2 nM
Kd [12]: 2.4 nM
Kd [13]: 2.8 nM
Kd [14]: 3.9 nM
Kd [15]: 2.8 nM
Kd [16]: 2.5 nM
B1: TB006 (antibody, human IgG4 S228P, kappa, V domains shown)
VH: QVQLVQSGAEVKKPGASVKVSCKASGYSFTNYYMHWVRQAPGQRLEWMGWIYPGSGNTNYNEKFQGRVTITADTSASTAYMELSSLRSEDTAVYYCSTAPGGFDVWGQGTTVTVSS
VL: DIVMTQTPLSLSVTPGQPASISCKSSKSLLHSDGITYLYWYLQKPGQSPQLLIYRMSNLASGVPDRFSGSGSGTDFTLKISRVEAEDVGVYYCAQMLEFPLTFGQGTKLEIKR
notes: Tested as formulated drug substance or drug product in 20 mM L-histidine, 5 mM methionine, 100 mM NaCl, 0.02% polysorbate 80, pH 5.8, or diluted in 0.9% saline; also called 4A11.H3L1; IMT006a

Kd [17]: 2.2 nM
Kd [18]: 3.1 nM
Kd [19]: 3.6 nM
Kd [20]: 2.7 nM
Kd [21]: 4.2 nM
Kd [22]: 3.4 nM
Kd [23]: 3.4 nM
Kd [24]: 2.8 nM
Kd [25]: 3.1 nM
Kd [26]: 3.7 nM
Kd [27]: 2.1 nM
Kd [28]: 3.9 nM
Kd [29]: 2.5 nM
Kd [30]: 3.3 nM
Kd [31]: 3 nM
Kd [32]: 2.1 nM
Kd [33]: 1.9 nM
B2: TB006 (antibody, human IgG4 S228P, kappa, V domains shown)
VH: B1 VH
VL: B1 VL
notes: Full antibody tested as drug substance (DS) in 20 mM L-histidine, 5 mM methionine, 100 mM NaCl, 0.02% polysorbate-80, pH 5.8; also called 4A11.H3L1; IMT006a
